# T1: STNV-1 coat protein (CP) (Satellite tobacco necrosis virus 1 …, UniProt P03606 1-196)
# T1 sequence: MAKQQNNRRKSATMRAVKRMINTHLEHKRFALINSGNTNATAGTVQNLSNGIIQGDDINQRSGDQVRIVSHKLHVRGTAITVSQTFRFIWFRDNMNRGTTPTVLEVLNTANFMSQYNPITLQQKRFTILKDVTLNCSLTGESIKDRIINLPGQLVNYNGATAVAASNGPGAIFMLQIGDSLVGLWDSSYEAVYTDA
# B1: satellite tobacco necrosis virus (STNV-1) coat protein (natural protein)
# chain: MAKQQNNRRKSATMRAVKRMINTHLEHKRFALINSGNTNATAGTVQNLSNGIIQGDDINQRSGDQVRIVSHKLHVRGTAITVSQTFRFIWFRDNMNRGTTPTVLEVLNTANFMSQYNPITLQQKRFTILKDVTLNCSLTGESIKDRIINLPGQLVNYNGATAVAASNGPGAIFMLQIGDSLVGLWDSSYEAVYTDA
# notes: coat protein of satellite tobacco necrosis virus strain 1 (STNV-1), recombinant version expressed from a synthetic gene; In the T = 1 capsid the chain stands 60 times; all assembly here was done with RNA present; also called STNV CP; CP; source: E. coli (synthetic gene); recombinant VLPs purified, disassembled in 50 mM Hepes, 10 mM EDTA, pH 8.5; CP separated from the mRNA by Q-Sepharose FF and SP …
# What was measured:
# STNV-1 coat protein (CP) [1] = target: T1, STNV-1 coat protein (CP); assay: analytical ultracentrifugation (capsid reassembly), TEM; VLPs form even at lowest molar ratio; 28 S and ~42 S species at 1:1; Reassembly buffer, salt, pH and temperature not in the material (capsid assembly depends on calcium and pH); short RNAs at molar ratios incl. 1:1 and 2.5:1; CP; details: protein: recombinant; hairpin, 4-nt loop ACAA
# [2] = target: the molecule itself; assay: crystal structure; VLP reassembled from purified CP with B3 RNA aptamer (5:1 w/w CP:RNA) in 50 mM Hepes, 3 mM CaCl2, pH 7.5, purified by SEC; crystals in 50 mM phosphate pH 6.2-6.8, 0.2-0.8% PEG 6000, 0-1 mM MgCl2, 25 °C; strict 60-fold NCS
# STNV-1 coat protein (CP) [3] = target: T1, STNV-1 coat protein (CP); assay: analytical ultracentrifugation (capsid reassembly); heterologous RNA; triggers capsid assembly; Reassembly buffer, salt, pH and temperature not in the material (capsid assembly depends on calcium and pH); short RNAs at molar ratios incl. 1:1 and 2.5:1; CP; details: protein: recombinant; hairpin, loop AUUA
# STNV-1 coat protein (CP) [4] = target: T1, STNV-1 coat protein (CP); assay: analytical ultracentrifugation (capsid reassembly); assembly more efficient than B3; Reassembly buffer, salt, pH and temperature not in the material (capsid assembly depends on calcium and pH); short RNAs at molar ratios incl. 1:1 and 2.5:1; CP; details: protein: recombinant; hairpin, 4-nt loop ACAA
binder,measurement,setting,value
CCUUUUCAAGACAUGCAACAAUGCACACAG (structured_RNA) [B3 aptamer],binding result,STNV-1 coat protein (CP) [1],binds
B1,stoichiometry N,[2],60
ACAUGAGGAUUACCCAUGU (structured_RNA) [MS2 TR],binding result,STNV-1 coat protein (CP) [3],binds
CGUGCAACAAUGCACG (structured_RNA) [B3 short],binding result,STNV-1 coat protein (CP) [4],binds
